The record followed here is patent publication US20150329642A1.

In test [1] the target is cMetECDHis (human) (UniProt P08581). The experiment in a line: cross-block ELISA; competitor 005. On the technique in general: In an ELISA, binding on a coated surface is turned into a signal by an enzyme label.
For test [2] the target is unchanged. As to the kind of experiment: cross-block ELISA; competitor 006.
The target is the same in test [3]. As to the kind of experiment: cross-block ELISA; competitor 008.
Test [4] has the same target. The experiment in a line: cross-block ELISA; competitor 022.
For test [5] the target is unchanged. The experiment in a line: cross-block ELISA; competitor 024.
Test [6] shares this target. The experiment in a line: cross-block ELISA; competitor 035.
Test [7] shares this target. The experiment in a line: cross-block ELISA; competitor 045.
For test [8] the target is unchanged. As to the kind of experiment: cross-block ELISA; competitor 058.
Test [9] has the same target. The experiment in a line: cross-block ELISA; competitor 062.
For test [10] the target is unchanged. As to the kind of experiment: cross-block ELISA; competitor 064.
For test [11] the target is unchanged. As to the kind of experiment: cross-block ELISA; competitor 068.
Test [12] has the same target. As to the kind of experiment: cross-block ELISA; competitor 069.
The target is the same in test [13]. The experiment in a line: cross-block ELISA; competitor 098.
Test [14] has the same target. The experiment in a line: cross-block ELISA; competitor 101.
Test [15] shares this target. As to the kind of experiment: cross-block ELISA; competitor 181.
For test [16] the target is unchanged. As to the kind of experiment: cross-block ELISA; competitor 5D5.
For test [17] the target is unchanged. The experiment in a line: cross-block ELISA; competitor G11-HZ.
For test [18] the target is unchanged. As to the kind of experiment: BLI (Octet); antibody captured, cMetECDHis in solution.
Test [19] concerns the target cMetSEMA-567His8 (human) (UniProt P08581). The experiment in a line: TR-FRET; displacement of AlexaFluor-647-HGF from cMetSEMA-567His8.
Test [20] concerns the target human c-Met, membrane-bound on cells (human) (UniProt P08581). As to the kind of experiment: flow cytometry on A431 cells (PE goat anti-human IgG); top panel. On the technique in general: In flow cytometry, cells or beads pass a laser one at a time.
Test [21] addresses recombinant human c-Met extracellular domain (R&D systems) (human) (UniProt P08581). As to the kind of experiment: competition ELISA, residual Europium-HGF signal at 615 nm at the lower plateau of the fit; sheet prints no competing mAb ~66000, no HGF-Europium ~600; upper panel.
Test [22] shares this target. The experiment in a line: competition ELISA on coated recombinant c-Met extracellular domain; blocked ligand Europium-conjugated HGF; column headed EC50 on the sheet, called IC50 in paragraph 270; upper panel.

In general, Kd refers to the equilibrium constant for the complex coming apart. A low value points to tighter binding. Broadly, the koff is the rate constant with which the complex falls apart. For orientation: kon means a measure of how fast the partners come together. Usually % inhibition stands for the change of the read-out against control, counted positive when it falls. A high value points to a response far below the control. In general, IC50 refers to the concentration at which inhibition is half-maximal. The term EC50 denotes the concentration needed to bring the measured effect to its halfway point. A high value points to a less potent agent. In the case of IgG1-5D5 (antibody), the residual binding, % of no competitor stood at 42.3% in test [1]; 58.8% in test [2]; 90.2% in test [3]; 12.4% in [4]; 94.2% in [5]; 98.1% in test [6]. Further, the residual binding, % of no competitor in test [7] was 83.9%; in test [8], 6.6%; in [9] it was 97.6%; in test [10] it was 97.1%; in [11] it was 97.8%; in test [12] it was 99.6%. Further, the residual binding, % of no competitor turned out to be 97.6% in test [13]; 97.9% in test [14]; 103% in test [15]; 4.1% in test [16]; 97.3% in [17]. This substance showed an equilibrium dissociation constant (Kd) in [18] of 5.86 nM. The off-rate (koff) in test [18] was 0.00125 s⁻¹. Besides, the kon in test [18] was determined as 214000 M⁻¹ s⁻¹. In test [19], the % inhibition was 95%. For the same substance, the IC50 came out at 0.2 µg/mL in [19] and 0.0244 µg/mL in test [22]. In addition, the half-maximal effective concentration (EC50) in test [20] came to 0.531 nM. The Bottom in [21] is 6350 RFU.

Regarding IgG4-5D5 (antibody), in [20], the concentration for a half-maximal effect (EC50) was determined as 0.966 nM. This lies in the sub-nanomolar range.
